Results taken from patent US20100184658A1 (published 2010).

Experiments:
Test in all cases: cell-based or functional assay
[1] = molecular target: T1, IKBKB (IKK beta) IKK2 (human (printed as (h)), UniProt O14920 1-756, limits assumed)
T1 sequence (looked up): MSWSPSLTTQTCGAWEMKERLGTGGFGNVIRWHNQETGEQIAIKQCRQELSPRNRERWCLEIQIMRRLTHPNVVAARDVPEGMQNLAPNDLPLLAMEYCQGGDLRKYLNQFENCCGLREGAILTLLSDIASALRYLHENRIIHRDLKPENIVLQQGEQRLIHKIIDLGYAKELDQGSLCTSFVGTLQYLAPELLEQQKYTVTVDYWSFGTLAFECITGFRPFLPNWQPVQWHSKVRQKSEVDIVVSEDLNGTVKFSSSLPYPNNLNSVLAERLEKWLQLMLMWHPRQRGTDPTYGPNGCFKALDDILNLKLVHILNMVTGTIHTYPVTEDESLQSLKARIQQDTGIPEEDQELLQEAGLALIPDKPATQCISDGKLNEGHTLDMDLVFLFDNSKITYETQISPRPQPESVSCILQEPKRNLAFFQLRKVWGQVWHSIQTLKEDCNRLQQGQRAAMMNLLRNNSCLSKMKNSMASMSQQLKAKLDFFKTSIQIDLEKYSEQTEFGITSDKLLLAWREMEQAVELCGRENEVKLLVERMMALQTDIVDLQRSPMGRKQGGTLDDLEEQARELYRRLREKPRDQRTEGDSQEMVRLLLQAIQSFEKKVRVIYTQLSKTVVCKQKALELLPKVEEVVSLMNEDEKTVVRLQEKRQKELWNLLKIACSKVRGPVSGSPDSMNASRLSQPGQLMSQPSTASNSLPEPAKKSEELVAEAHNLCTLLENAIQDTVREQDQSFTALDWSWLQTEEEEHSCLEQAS

[2] = molecular target: AKT2 (PKB beta) (human (printed as (h)), UniProt P31751 1-481, limits assumed)
[3] = molecular target: T2, SGK (SGK1) Serum/glucocorticoid regulated kinase (human (printed as (h)), UniProt O00141 60-431, limits assumed)
T2 sequence (looked up): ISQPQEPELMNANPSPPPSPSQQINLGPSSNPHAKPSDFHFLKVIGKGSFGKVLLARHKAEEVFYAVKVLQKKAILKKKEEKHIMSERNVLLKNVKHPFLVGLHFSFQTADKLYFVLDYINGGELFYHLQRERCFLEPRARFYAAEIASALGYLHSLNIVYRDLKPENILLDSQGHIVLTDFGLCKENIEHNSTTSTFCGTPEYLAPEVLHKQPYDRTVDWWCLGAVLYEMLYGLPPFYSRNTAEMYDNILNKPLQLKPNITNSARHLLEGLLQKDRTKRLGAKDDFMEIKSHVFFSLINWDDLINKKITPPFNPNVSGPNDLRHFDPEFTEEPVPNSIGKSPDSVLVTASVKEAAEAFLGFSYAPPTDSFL

[4] = molecular target: IR (h) (human (printed as (h)), UniProt P06213 1005-1310, limits assumed)
IR (h) (human (printed as (h)), UniProt P06213 1005-1310, limits assumed), sequence (P06213 1005-1310 limits assumed): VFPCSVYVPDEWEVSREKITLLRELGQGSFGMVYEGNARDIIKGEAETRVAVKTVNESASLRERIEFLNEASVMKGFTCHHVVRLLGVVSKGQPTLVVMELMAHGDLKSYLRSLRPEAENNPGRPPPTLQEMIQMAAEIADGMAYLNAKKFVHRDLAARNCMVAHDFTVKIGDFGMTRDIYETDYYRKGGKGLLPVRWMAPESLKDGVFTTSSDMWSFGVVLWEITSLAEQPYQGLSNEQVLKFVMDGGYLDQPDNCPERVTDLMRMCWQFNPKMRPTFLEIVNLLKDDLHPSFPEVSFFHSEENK

AKT2 (PKB beta) (human (printed as (h)), UniProt P31751 1-481, limits assumed), sequence (P31751 whole entry): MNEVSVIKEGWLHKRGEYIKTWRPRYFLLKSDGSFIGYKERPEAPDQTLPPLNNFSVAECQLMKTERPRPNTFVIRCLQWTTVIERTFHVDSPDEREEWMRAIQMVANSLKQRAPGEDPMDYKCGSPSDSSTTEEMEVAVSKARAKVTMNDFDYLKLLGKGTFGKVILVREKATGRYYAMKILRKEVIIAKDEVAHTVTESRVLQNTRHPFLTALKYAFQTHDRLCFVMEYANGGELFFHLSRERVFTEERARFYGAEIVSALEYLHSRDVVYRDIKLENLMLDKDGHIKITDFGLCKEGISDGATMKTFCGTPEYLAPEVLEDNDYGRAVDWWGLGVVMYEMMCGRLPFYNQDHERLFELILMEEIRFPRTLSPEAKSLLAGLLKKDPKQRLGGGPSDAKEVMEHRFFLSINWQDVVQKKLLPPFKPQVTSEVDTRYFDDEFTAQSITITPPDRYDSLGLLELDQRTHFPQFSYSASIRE

## SGRPPMIVWFNRPFLIAVSHTHGQTILFMAKVINPVGA [D3 peptide]
[1]
  D3 at 0.1 µM % activity: 103%
  D3 at 1 µm % activity: 71%
[2]
  D3 at 0.1 µM % activity: 63%
  D3 at 1 µm % activity: 12%
  IC50: 0.448 µM
[3]
  D3 at 0.1 µM % activity: 74%
  D3 at 1 µm % activity: 5%
  IC50: 0.325 µM
[4]
  D3 at 0.1 µM % activity: 96%
  D3 at 1 µm % activity: 103%
